Data reported in PMC7668070 (Proceedings of the National Academy of Sciences of the …, 2020).
Where a chain is given by its changes, count along the chain named. Names may count otherwise.

B1: K31F/N33D/H34A/E35Q/N49D/N51S/N53S/E57G/N64D ACE2(614), Aga2p-GFP construct Y354, displayed on yeast (designed binder)
chain: QSTIEEQAKTFLDFFDAQAEDLFYQSSLASWDYSTSITEGNVQNMNDAGDKWSAFLKEQSTLAQMYPLQEIQNLTVKLQLQALQQNGSSVLSEDKSKRLNTILNTMSTIYSTGKVCNPDNPQECLLLEPGLNEIMANSLDYNERLWAWESWRSEVGKQLRPLYEEYVVLKNEMARANHYEDYGDYWRGDYEVNGVDGYDYSRGQLIEDVEHTFEEIKPLYEHLHAYVRAKLMNAYPSYISPIGCLPAHLLGDMWGRFWTNLYSLTVPFGQKPNIDVTDAMVDQAWDAQRIFKEAEKFFVSVGLPNMTQGFWENSMLTDPGNVQKAVCHPTAWDLGKGDFRILMCTKVTMDDFLTAHHEMGHIQYDMAYAAQPFLLRNGANEGFHEAVGEIMSLSAATPKHLKSIGLLSPDFQEDNETEINFLLKQALTIVGTLPFTYMLEKWRWMVFKGEIPKDQWMKKWWEMKREIVGVVEPVPHDETYCDPASLFHVSNDYSFIRYYTRTLYQFQFQEALCQAAKHEGPLHKCDISNSTEAGQKLFNMLRLGKSEPWTLALENVVGAKNMNVRPLLNYFEPLFTWLKDQNKNSFVGWSTDWSPYA
B2: K31F/H34I/E35Q ACE2(614), Aga2p-GFP construct Y293, displayed on yeast (designed binder)
chain: B1 chain with D16N, A17I, D32N, S34N, S36N, G40E, D47N
B3: S19P/N33S/H34V/F40L/N49D/L100P ACE2(614), Aga2p-GFP construct Y375, displayed on yeast (designed binder)
chain: QPTIEEQAKTFLDKFSVEAEDLLYQSSLASWDYNTNITEENVQNMNNAGDKWSAFLKEQSTLAQMYPLQEIQNLTVKLQLQAPQQNGSSVLSEDKSKRLNTILNTMSTIYSTGKVCNPDNPQECLLLEPGLNEIMANSLDYNERLWAWESWRSEVGKQLRPLYEEYVVLKNEMARANHYEDYGDYWRGDYEVNGVDGYDYSRGQLIEDVEHTFEEIKPLYEHLHAYVRAKLMNAYPSYISPIGCLPAHLLGDMWGRFWTNLYSLTVPFGQKPNIDVTDAMVDQAWDAQRIFKEAEKFFVSVGLPNMTQGFWENSMLTDPGNVQKAVCHPTAWDLGKGDFRILMCTKVTMDDFLTAHHEMGHIQYDMAYAAQPFLLRNGANEGFHEAVGEIMSLSAATPKHLKSIGLLSPDFQEDNETEINFLLKQALTIVGTLPFTYMLEKWRWMVFKGEIPKDQWMKKWWEMKREIVGVVEPVPHDETYCDPASLFHVSNDYSFIRYYTRTLYQFQFQEALCQAAKHEGPLHKCDISNSTEAGQKLFNMLRLGKSEPWTLALENVVGAKNMNVRPLLNYFEPLFTWLKDQNKNSFVGWSTDWSPYA
B4: S19P/Q42L/L79T/N90Q ACE2(614), Aga2p-GFP construct Y355, displayed on yeast (designed binder)
chain: B3 chain with S16N, V17H, L23F, Q25L, D32N, L62T, N73Q, P83L
B5: K31Y/W69V/L79T/L91P ACE2(614), Aga2p-GFP construct Y311, displayed on yeast (designed binder)
chain: B3 chain with P2S, K14Y, S16N, V17H, L23F, D32N, W52V, L62T, L74P, P83L

molecular target: SARS-CoV-2 spike RBD monomer (328-533), 8XHis tag, AviTag, biotinylated (SARS-CoV-2); assay: flow cytometry on cells; details: one partner purified

**Q.** How did the Kd turn out when B1 was run?
**A.** 0.45 nM

**Q.** With B2 as the binder, how does the Kd read?
**A.** 1.71 nM

**Q.** For B3, which Kd is on record?
**A.** 0.61 nM

**Q.** With B4 as the binder, how does the Kd read?
**A.** 0.94 nM

**Q.** For B5, which Kd is on record?
**A.** 0.64 nM
